The target in test [1] is human GLP-1 receptor (human, UniProt P43220 24-463). Description: cell-based or functional assay.
Test [2] addresses human glucagon receptor (human, UniProt P47871 26-477). The test is described as follows: cell-based or functional assay.

*1 amine or outer side, *2 acyl side, *3 side chain or, on linkers, in order; H or OH if unused. Where no end group is shown, it is not given here. Side-chain parts run from the residue outwards. [ ]: non-standard residue; d: D form. The star is where a group is joined. γGlu = O=C(O)[C@H](CCC(=O)[*:2])N[*:1]; Palmitoyl = CCCCCCCCCCCCCCCC(=O)*; Propionyl = CCC(=O)*; βAla = NCCC(=O)O

human glucagon receptor, sequence (P47871 26-477): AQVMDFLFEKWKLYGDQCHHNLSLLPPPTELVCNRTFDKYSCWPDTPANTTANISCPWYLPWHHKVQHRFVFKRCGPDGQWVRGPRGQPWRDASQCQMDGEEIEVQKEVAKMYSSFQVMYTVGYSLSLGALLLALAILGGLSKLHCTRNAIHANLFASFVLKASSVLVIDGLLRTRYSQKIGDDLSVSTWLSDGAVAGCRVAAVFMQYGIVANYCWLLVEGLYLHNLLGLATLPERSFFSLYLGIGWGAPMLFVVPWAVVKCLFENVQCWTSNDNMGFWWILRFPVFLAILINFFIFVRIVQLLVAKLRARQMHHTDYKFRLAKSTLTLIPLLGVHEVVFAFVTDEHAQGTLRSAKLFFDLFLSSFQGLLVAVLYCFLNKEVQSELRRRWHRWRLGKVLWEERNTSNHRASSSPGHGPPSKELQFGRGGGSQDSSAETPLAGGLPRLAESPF

B1: SEQ ID NO: (110) (peptide)
peptide: H[dS]QGTFTSDLSKQMEEEAAKDFIEWLKAGGPSSGAPPPSK([γGlu-Palmitoyl])-NH2
modifications: N-terminus assumed
SMILES: CCCCCCCCCCCCCCCC(=O)N[C@@H](CCC(=O)NCCCC[C@H](NC(=O)[C@H](CO)NC(=O)[C@@H]1CCCN1C(=O)[C@@H]1CCCN1C(=O)[C@@H]1CCCN1C(=O)[C@H](C)NC(=O)CNC(=O)[C@H](CO)NC(=O)[C@H](CO)NC(=O)[C@@H]1CCCN1C(=O)CNC(=O)CNC(=O)[C@H](C)NC(=O)[C@H](CCCCN)NC(=O)[C@H](CC(C)C)NC(=O)[C@H](Cc1c[nH]c2ccccc12)NC(=O)[C@H](CCC(=O)O)NC(=O)[C@@H](NC(=O)[C@H](Cc1ccccc1)NC(=O)[C@H](CC(=O)O)NC(=O)[C@H](CCCCN)NC(=O)[C@H](C)NC(=O)[C@H](C)NC(=O)[C@H](CCC(=O)O)NC(=O)[C@H](CCC(=O)O)NC(=O)[C@H](CCC(=O)O)NC(=O)[C@H](CCSC)NC(=O)[C@H](CCC(N)=O)NC(=O)[C@H](CCCCN)NC(=O)[C@H](CO)NC(=O)[C@H](CC(C)C)NC(=O)[C@H](CC(=O)O)NC(=O)[C@H](CO)NC(=O)[C@@H](NC(=O)[C@H](Cc1ccccc1)NC(=O)[C@@H](NC(=O)CNC(=O)[C@H](CCC(N)=O)NC(=O)[C@@H](CO)NC(=O)[C@@H](N)Cc1c[nH]cn1)[C@@H](C)O)[C@@H](C)O)[C@@H](C)CC)C(N)=O)C(=O)O
As for B1, in test [1], the “EC50 hGLP-1R (cAMP formation)” value amounted to 0.0029 nM. Also, in test [2], the “EC50 hGlucagonR (cAMP formation)” value was 0.323 nM.

B2: SEQ ID NO: (108) (peptide)
peptide: H[dS]QGTFTSDLSKQMEEEAAQDFIEWLKAGGPSSGAPPPSK([γGlu-Palmitoyl])-NH2
modifications: N-terminus assumed
SMILES: CCCCCCCCCCCCCCCC(=O)N[C@@H](CCC(=O)NCCCC[C@H](NC(=O)[C@H](CO)NC(=O)[C@@H]1CCCN1C(=O)[C@@H]1CCCN1C(=O)[C@@H]1CCCN1C(=O)[C@H](C)NC(=O)CNC(=O)[C@H](CO)NC(=O)[C@H](CO)NC(=O)[C@@H]1CCCN1C(=O)CNC(=O)CNC(=O)[C@H](C)NC(=O)[C@H](CCCCN)NC(=O)[C@H](CC(C)C)NC(=O)[C@H](Cc1c[nH]c2ccccc12)NC(=O)[C@H](CCC(=O)O)NC(=O)[C@@H](NC(=O)[C@H](Cc1ccccc1)NC(=O)[C@H](CC(=O)O)NC(=O)[C@H](CCC(N)=O)NC(=O)[C@H](C)NC(=O)[C@H](C)NC(=O)[C@H](CCC(=O)O)NC(=O)[C@H](CCC(=O)O)NC(=O)[C@H](CCC(=O)O)NC(=O)[C@H](CCSC)NC(=O)[C@H](CCC(N)=O)NC(=O)[C@H](CCCCN)NC(=O)[C@H](CO)NC(=O)[C@H](CC(C)C)NC(=O)[C@H](CC(=O)O)NC(=O)[C@H](CO)NC(=O)[C@@H](NC(=O)[C@H](Cc1ccccc1)NC(=O)[C@@H](NC(=O)CNC(=O)[C@H](CCC(N)=O)NC(=O)[C@@H](CO)NC(=O)[C@@H](N)Cc1c[nH]cn1)[C@@H](C)O)[C@@H](C)O)[C@@H](C)CC)C(N)=O)C(=O)O
In the case of B2, the “EC50 hGLP-1R (cAMP formation)” value in test [1] stood at 0.0021 nM. Also, the “EC50 hGlucagonR (cAMP formation)” value in test [2] stood at 0.541 nM.

B3: SEQ ID NO: (16) (peptide)
peptide: HSQGTFTSDLSKQMEERRAKDFIEWLKNGGPSSGAPPPS-NH2
On to B3, for which the “EC50 hGLP-1R (cAMP formation)” value in test [1] stood at 0.0076 nM. For the same molecule, the “EC50 hGlucagonR (cAMP formation)” value in test [2] came out at 2.13 nM.

B4: SEQ ID NO: (106) (peptide)
peptide: H[dS]QGTFTSDLSKQMESRRAQDFIEWLKSGGPSSGAPPPSK([γGlu-Propionyl])-NH2
Take B4: the “EC50 hGLP-1R (cAMP formation)” value in test [1] worked out at 0.315 nM. Also, the “EC50 hGlucagonR (cAMP formation)” value in test [2] is 1.32 nM.

B5: SEQ ID NO: (104) (peptide)
peptide: H[dS]QGTFTSDLSKQMESRRAQDFIEWLKEGGPSSGKPPPSK([γGlu-Palmitoyl])-NH2
modifications: N-terminus assumed
SMILES: CCCCCCCCCCCCCCCC(=O)N[C@@H](CCC(=O)NCCCC[C@H](NC(=O)[C@H](CO)NC(=O)[C@@H]1CCCN1C(=O)[C@@H]1CCCN1C(=O)[C@@H]1CCCN1C(=O)[C@H](CCCCN)NC(=O)CNC(=O)[C@H](CO)NC(=O)[C@H](CO)NC(=O)[C@@H]1CCCN1C(=O)CNC(=O)CNC(=O)[C@H](CCC(=O)O)NC(=O)[C@H](CCCCN)NC(=O)[C@H](CC(C)C)NC(=O)[C@H](Cc1c[nH]c2ccccc12)NC(=O)[C@H](CCC(=O)O)NC(=O)[C@@H](NC(=O)[C@H](Cc1ccccc1)NC(=O)[C@H](CC(=O)O)NC(=O)[C@H](CCC(N)=O)NC(=O)[C@H](C)NC(=O)[C@H](CCCNC(=N)N)NC(=O)[C@H](CCCNC(=N)N)NC(=O)[C@H](CO)NC(=O)[C@H](CCC(=O)O)NC(=O)[C@H](CCSC)NC(=O)[C@H](CCC(N)=O)NC(=O)[C@H](CCCCN)NC(=O)[C@H](CO)NC(=O)[C@H](CC(C)C)NC(=O)[C@H](CC(=O)O)NC(=O)[C@H](CO)NC(=O)[C@@H](NC(=O)[C@H](Cc1ccccc1)NC(=O)[C@@H](NC(=O)CNC(=O)[C@H](CCC(N)=O)NC(=O)[C@@H](CO)NC(=O)[C@@H](N)Cc1c[nH]cn1)[C@@H](C)O)[C@@H](C)O)[C@@H](C)CC)C(N)=O)C(=O)O
As for B5, in test [1], the “EC50 hGLP-1R (cAMP formation)” value is 0.0073 nM. In addition, the “EC50 hGlucagonR (cAMP formation)” value in test [2] came out at 0.0287 nM.

B6: SEQ ID NO: (105) (peptide)
peptide: H[dS]QGTFTSDLSKQMESRRAQDFIEWLKSGGPSSGAPPPSK(Ac)-NH2
With B6, the “EC50 hGLP-1R (cAMP formation)” value in test [1] came out at 0.142 nM. For the same molecule, the “EC50 hGlucagonR (cAMP formation)” value in test [2] came to 0.614 nM.

B7: SEQ ID NO: (100) (peptide)
peptide: H[dS]QGTFTSDLSKQMESRRAQDFIEWLKSGGPSSGAPPPK([βAla-βAla-Palmitoyl])-NH2
modifications: N-terminus assumed
SMILES: CCCCCCCCCCCCCCCC(=O)NCCC(=O)NCCC(=O)NCCCC[C@H](NC(=O)[C@@H]1CCCN1C(=O)[C@@H]1CCCN1C(=O)[C@@H]1CCCN1C(=O)[C@H](C)NC(=O)CNC(=O)[C@H](CO)NC(=O)[C@H](CO)NC(=O)[C@@H]1CCCN1C(=O)CNC(=O)CNC(=O)[C@H](CO)NC(=O)[C@H](CCCCN)NC(=O)[C@H](CC(C)C)NC(=O)[C@H](Cc1c[nH]c2ccccc12)NC(=O)[C@H](CCC(=O)O)NC(=O)[C@@H](NC(=O)[C@H](Cc1ccccc1)NC(=O)[C@H](CC(=O)O)NC(=O)[C@H](CCC(N)=O)NC(=O)[C@H](C)NC(=O)[C@H](CCCNC(=N)N)NC(=O)[C@H](CCCNC(=N)N)NC(=O)[C@H](CO)NC(=O)[C@H](CCC(=O)O)NC(=O)[C@H](CCSC)NC(=O)[C@H](CCC(N)=O)NC(=O)[C@H](CCCCN)NC(=O)[C@H](CO)NC(=O)[C@H](CC(C)C)NC(=O)[C@H](CC(=O)O)NC(=O)[C@H](CO)NC(=O)[C@@H](NC(=O)[C@H](Cc1ccccc1)NC(=O)[C@@H](NC(=O)CNC(=O)[C@H](CCC(N)=O)NC(=O)[C@@H](CO)NC(=O)[C@@H](N)Cc1c[nH]cn1)[C@@H](C)O)[C@@H](C)O)[C@@H](C)CC)C(N)=O
In the case of B7, the “EC50 hGLP-1R (cAMP formation)” value in test [1] worked out at 0.0096 nM. Moreover, the “EC50 hGlucagonR (cAMP formation)” value in test [2] is 0.0166 nM.

B8: SEQ ID NO: (107) (peptide)
peptide: H[dS]QGTFTSDLSKQMESRRAQDFIEWLKSGGPSSGAPPPSK(6‑((4,4-diphenyl-cyclohexyloxy)-hydroxy-phosphoryloxy)‑hexanoyl)-NH2
As to B8, the “EC50 hGLP-1R (cAMP formation)” value in test [1] was 0.009 nM. For the same molecule, in test [2], the “EC50 hGlucagonR (cAMP formation)” value turned out to be 5.16 nM.

B9: SEQ ID NO: (103) (peptide)
peptide: H[dS]QGTFTSDLSKQMESRAAQDFIEWLKSGGPSSGAPPPSK([γGlu-Palmitoyl])-NH2
modifications: N-terminus assumed
SMILES: CCCCCCCCCCCCCCCC(=O)N[C@@H](CCC(=O)NCCCC[C@H](NC(=O)[C@H](CO)NC(=O)[C@@H]1CCCN1C(=O)[C@@H]1CCCN1C(=O)[C@@H]1CCCN1C(=O)[C@H](C)NC(=O)CNC(=O)[C@H](CO)NC(=O)[C@H](CO)NC(=O)[C@@H]1CCCN1C(=O)CNC(=O)CNC(=O)[C@H](CO)NC(=O)[C@H](CCCCN)NC(=O)[C@H](CC(C)C)NC(=O)[C@H](Cc1c[nH]c2ccccc12)NC(=O)[C@H](CCC(=O)O)NC(=O)[C@@H](NC(=O)[C@H](Cc1ccccc1)NC(=O)[C@H](CC(=O)O)NC(=O)[C@H](CCC(N)=O)NC(=O)[C@H](C)NC(=O)[C@H](C)NC(=O)[C@H](CCCNC(=N)N)NC(=O)[C@H](CO)NC(=O)[C@H](CCC(=O)O)NC(=O)[C@H](CCSC)NC(=O)[C@H](CCC(N)=O)NC(=O)[C@H](CCCCN)NC(=O)[C@H](CO)NC(=O)[C@H](CC(C)C)NC(=O)[C@H](CC(=O)O)NC(=O)[C@H](CO)NC(=O)[C@@H](NC(=O)[C@H](Cc1ccccc1)NC(=O)[C@@H](NC(=O)CNC(=O)[C@H](CCC(N)=O)NC(=O)[C@@H](CO)NC(=O)[C@@H](N)Cc1c[nH]cn1)[C@@H](C)O)[C@@H](C)O)[C@@H](C)CC)C(N)=O)C(=O)O
Regarding B9, in test [1], the “EC50 hGLP-1R (cAMP formation)” value came to 0.0037 nM. In addition, in test [2], the “EC50 hGlucagonR (cAMP formation)” value worked out at 0.0459 nM.

B10: SEQ ID NO: (109) (peptide)
peptide: H[dS]QGTFTSDLSKQMESEAAQDFIEWLKAGGPSSGAPPPSK([γGlu-Palmitoyl])-NH2
modifications: N-terminus assumed
SMILES: CCCCCCCCCCCCCCCC(=O)N[C@@H](CCC(=O)NCCCC[C@H](NC(=O)[C@H](CO)NC(=O)[C@@H]1CCCN1C(=O)[C@@H]1CCCN1C(=O)[C@@H]1CCCN1C(=O)[C@H](C)NC(=O)CNC(=O)[C@H](CO)NC(=O)[C@H](CO)NC(=O)[C@@H]1CCCN1C(=O)CNC(=O)CNC(=O)[C@H](C)NC(=O)[C@H](CCCCN)NC(=O)[C@H](CC(C)C)NC(=O)[C@H](Cc1c[nH]c2ccccc12)NC(=O)[C@H](CCC(=O)O)NC(=O)[C@@H](NC(=O)[C@H](Cc1ccccc1)NC(=O)[C@H](CC(=O)O)NC(=O)[C@H](CCC(N)=O)NC(=O)[C@H](C)NC(=O)[C@H](C)NC(=O)[C@H](CCC(=O)O)NC(=O)[C@H](CO)NC(=O)[C@H](CCC(=O)O)NC(=O)[C@H](CCSC)NC(=O)[C@H](CCC(N)=O)NC(=O)[C@H](CCCCN)NC(=O)[C@H](CO)NC(=O)[C@H](CC(C)C)NC(=O)[C@H](CC(=O)O)NC(=O)[C@H](CO)NC(=O)[C@@H](NC(=O)[C@H](Cc1ccccc1)NC(=O)[C@@H](NC(=O)CNC(=O)[C@H](CCC(N)=O)NC(=O)[C@@H](CO)NC(=O)[C@@H](N)Cc1c[nH]cn1)[C@@H](C)O)[C@@H](C)O)[C@@H](C)CC)C(N)=O)C(=O)O
Turning to B10, the “EC50 hGLP-1R (cAMP formation)” value in test [1] is 0.0033 nM. In test [2], the “EC50 hGlucagonR (cAMP formation)” value turned out to be 0.277 nM.

Source of the values: patent US20130336893A1 (Sanofi, published 2013).
